The target in the assay is T1, recombinant murine kindlin-2 (mouse, UniProt Q8CIB5 1-680).
T1 construct: murine kindlin-2, unmodified after SenP2 cleavage of the His10-SUMO3 tandem tag; Vector pCoofy17; also called recombinant kindlin-2; purified kindlin-2; source: E. coli Rosetta, purified (Ni-NTA, SenP2 cleavage, size-exclusion chromatography); not shown: His10, N-terminal, cleaved; SUMO3, N-terminal, cleaved
T1 sequence (looked up): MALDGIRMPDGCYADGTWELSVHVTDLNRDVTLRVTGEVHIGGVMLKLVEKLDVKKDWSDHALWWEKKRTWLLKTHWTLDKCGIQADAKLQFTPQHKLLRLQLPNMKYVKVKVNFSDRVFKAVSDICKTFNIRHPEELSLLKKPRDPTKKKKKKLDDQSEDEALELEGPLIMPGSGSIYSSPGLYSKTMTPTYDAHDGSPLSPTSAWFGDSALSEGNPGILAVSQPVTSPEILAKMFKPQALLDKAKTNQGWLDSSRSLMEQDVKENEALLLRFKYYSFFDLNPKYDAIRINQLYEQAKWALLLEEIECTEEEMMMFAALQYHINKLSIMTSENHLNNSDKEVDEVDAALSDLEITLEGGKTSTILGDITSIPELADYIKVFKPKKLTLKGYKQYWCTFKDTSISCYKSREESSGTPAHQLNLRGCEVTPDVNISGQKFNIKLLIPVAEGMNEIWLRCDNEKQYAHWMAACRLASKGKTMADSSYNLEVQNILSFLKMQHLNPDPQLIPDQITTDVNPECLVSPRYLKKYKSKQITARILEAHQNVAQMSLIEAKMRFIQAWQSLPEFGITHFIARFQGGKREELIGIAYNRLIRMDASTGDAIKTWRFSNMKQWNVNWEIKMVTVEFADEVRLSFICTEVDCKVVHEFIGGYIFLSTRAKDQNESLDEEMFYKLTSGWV
Put plainly: pull-down; His10-tagged paxillin-LIM3 (35 µg) or paxillin-FL (10 µg) on Ni-NTA agarose, washed with 1 mM ZnCl2; 14 µg purified kindlin-2 added for 30 min at 4°C; 20 mM Tris pH 7.5, 200 mM NaCl, 1 mM TCEP, 0.05% Tween20; washes with 25 mM imidazole and 1 mM ZnCl2; SDS-PAGE. Conditions: both partners purified.

B1: His10-SUMO3-paxillin-LIM3 domain (domain or fragment, mouse, UniProt Q8VI36 473-533, looked up)
chain: APKCGGCARAILENYISALNTLWHPECFVCRECFTPFVNGSFFEHDGQPYCEVHYHERRGS
notes: paxillin LIM3 domain, A473-S533; Vector pCoofy17. 'murine' in the sentence of the methods stands before kindlin-2 and may or may not hold for paxillin-LIM3; also called His10-LIM3; His-tagged paxillin-LIM3 domain; source: E. coli Rosetta, purified (Ni-NTA, size-exclusion chromatography); not shown: His10, N-terminal, kept; SUMO3, N-terminal, kept
On to B1, for which the binding result is reported as “binds”.

These data come from publication PMC4749545, “Kindlin-2 cooperates with talin to activate integrins and induces cell spreading by directly binding paxillin” (eLife, 2016).
